Sequences and labels used below:
B1: IMA-ODC-001 (peptide)
peptide: ILDQKINEV
B2: IMA-TGFBI-001 (peptide)
peptide: ALFVRLLALA
B3: IMA-MUC-001 (peptide)
peptide: STAPPVHNV
B4: IMA-TOP-001 (peptide)
peptide: KIFDEILVNA
B5: IMA-NOX-001 (peptide)
peptide: ILAPVILYI
B6: IMA-MET-001 (peptide)
peptide: YVDPVITSI
B7: IMA-CCN-001 (peptide)
peptide: LLGATCMFV
B8: IMA-PCN-001 (peptide)
peptide: KLMDLDVEQL
B9: IMA-C20-001 (peptide)
peptide: ALSNLEVTL
modifications: also: acetate salt

Where no end group is shown, it is not given here.

For the first test, the target named is T1, recombinant HLA-A*0201 molecule (HLA-A*0201 heavy chain refolded with beta-2 microglobulin) (human). Kind of test: ELISA-based HLA refolding assay: recombinant HLA-A*0201 heavy chain with b2m and graded doses of peptide. (In general: In an ELISA, binding on a coated surface is turned into a signal by an enzyme label.)
Protocol: (§1) The amount of de novo-folded HLA/peptide complexes was determined by a quantitative ELISA. Dissociation constants (KD values) were calculated using a standard curve recorded from dilutions of a calibrant HLA/peptide complex.
What is called Kd is the constant that tells how readily two partners part at equilibrium. As to B1, the dissociation constant Kd came out at 0.2 nM.

For B2, the Kd is 0.001 nM.

For the next test, the target named is T1, recombinant HLA-A*0201 molecule …. Nature of the test: remark on making pMHC monomers for in vitro stimulation.
Regarding B3, the binding result was “binds”.

Another test has the same target. Kind of test: ELISA-based HLA refolding assay.
Protocol: as §1
Turning to B4, the binding result is listed as “binds”.

On to B5, for which the binding result is “binds”. Still for that read-out and setting: the result for B6 reads “binds”; that for B7, “binds”. B8: the binding result was “binds”.

On to B9, for which the binding result is “binds”.

For the origin of these results see patent US20090148400A1 (IMMATICS BIOTECHNOLOGIES GMHH, published 2009).
